The results in this text go back to publication PMC9606263, “Polerovirus N-terminal readthrough domain structures reveal molecular strategies for mitigating virus transmission by aphids” (Nature Communications, 2022).

Data set [1] concerns the target N-terminal portion of the readthrough domain of turnip yellows virus (TuYV NRTD; residues 224-459) (turnip yellows virus). As to the kind of experiment: SEC-MALS; loaded at 4 mg/mL on Superdex 200 10/300 Increase; 20 mM HEPES pH 7.5, 150 mM KCl, 1 mM DTT; 0.5 ml/min.
Data set [2] concerns the molecule itself. Described as above.

Usually stoichiometry N stands for the number of molecules, sites or subunits per partner or assembly.

As for “N-terminal portion of the readthrough domain of turnip yellows virus (TuYV NRTD; residues 224-459) (from UniProt P09516 224-459) (domain or fragment)”, in data set [1], the stoichiometry N is 2.

B1: N-terminal portion of the potato leafroll virus readthrough domain (PLRV NRTD; residues 230-458), native (domain or fragment)
chain: HERFIAYVGIPMLTIQARENDDQIILGSLGSQRMKYIEDENQNYTKFSSEYYSQSSMQAVPMYYFNVPKGQWSVDISCEGYQPTSSTSDPNRGRSDGMIAYSNADSDYWNVGEADGVKISKLRNDNTYRQGHPELEINSCHFREGQLLERDATISFHVEAPTDGRFFLVGPAIQKTAKYNYTISYGDWTDRDMELGLITVVLDEHLEGTGSANRVRRPPREGHTYMASP
notes: Readthrough protein (RTP, CP-RTD fusion) of potato leafroll virus, N-terminal portion of the readthrough domain, residues 230-458 of the complete RTP fusion; 6xHis-NusA removed with HRV3C protease; also called WT PLRV ^NRTD; source: E. coli BL21(DE3), purified (nickel column, HiTrap Q, SEC); not shown: 6xHis, N-terminal, cleaved; NusA, N-terminal, cleaved
Turning to B1, the “stoichiometry N” value in data set [2] stood at 2.
